The target of the series is GST-FUS (Homo sapiens, UniProt P35637 1-526). The experiment in a line: EMSA; 0.15-5 uM GST-FUS; yeast tRNA 25 ng, heparin added after binding; 10 mM Tris pH 7.5, 75 mM KCl, 4 mM MgCl2, 25 mM phosphocreatine, 1.25 mM ATP, 1.3% polyvinyl alcohol, 25 ng yeast tRNA, 0.8 mg BSA, 1 mM DTT, RNasin, 0.1 mM EDTA, 10% glycerol; 10 ul, 20 min at 30 C; then heparin 0.5 ug/ml; 4.5% native gel. As to conditions: protein: recombinant; tags: N-terminal GST, TEV-cleavable (GST-TEV-FUS); label: 32P-UTP; single strand. On the technique in general: Mobility shift assays separate free from complexed probe on a gel.
GST-FUS, sequence (P35637 whole entry): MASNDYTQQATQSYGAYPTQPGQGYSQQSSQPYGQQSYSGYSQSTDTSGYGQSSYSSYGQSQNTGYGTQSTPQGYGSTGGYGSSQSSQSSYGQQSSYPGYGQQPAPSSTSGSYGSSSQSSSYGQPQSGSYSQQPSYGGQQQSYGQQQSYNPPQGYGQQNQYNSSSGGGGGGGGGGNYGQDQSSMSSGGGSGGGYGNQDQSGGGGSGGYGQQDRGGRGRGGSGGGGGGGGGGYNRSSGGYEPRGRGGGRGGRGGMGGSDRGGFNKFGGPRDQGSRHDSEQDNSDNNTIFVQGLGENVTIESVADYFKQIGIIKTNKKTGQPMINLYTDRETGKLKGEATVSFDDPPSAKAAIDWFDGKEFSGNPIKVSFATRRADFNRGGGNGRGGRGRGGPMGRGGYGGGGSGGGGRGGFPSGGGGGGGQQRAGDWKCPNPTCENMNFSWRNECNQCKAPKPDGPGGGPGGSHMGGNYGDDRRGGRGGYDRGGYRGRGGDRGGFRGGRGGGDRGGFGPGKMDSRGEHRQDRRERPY

B1: FUS RNA probe (GU-repeat) (ssRNA)
RNA: GGGGAAAAUUAAUGUGUGUGUGUGGAAAAUU
B1: the binding result was “binds”.

For the origin of these results see publication PMC3082519, “Molecular Determinants and Genetic Modifiers of Aggregation and Toxicity for the ALS Disease Protein FUS/TLS”.
